In the MegaScale stability set (Tsuboyama et al. 2023):

B1: 6NMW (parent)
chain: QGDIVVALYPYDGIHPDDLSFKKGEKMKVLEEHGEWWKAKSLLTKKEGFIPSNYVAKLN

Variants of: B1
Assay: folding stability dG (cDNA display proteolysis); higher = more stable
Details: PBS, room temperature

Folding stability dG [kcal/mol], by site and new letter:
A39: F -0.401 | W -0.54 | M 1.64 | S 0.729 | L 1.97 | Y -0.228 | I 1.95 | C 4.07 | V 4.31 | G 1.44 | T 1.32
G48: Y 0.585 | W -0.877 | N -0.967 | S -0.544 | H -0.819 | F 0.034 | A -0.512 | C 0.255 | K 0.081
K46: Y 2.02 | C 3.37 | D 2.47 | F 2.48 | R 3.66 | N 3.02 | H 2.64 | M 3.47 | I 2.34 | T 1.95 | V 2.21 | E 2.94 | S 2.48 | G 2.14 | A 3.05 | W 1.73 | L 3.56
N53: I 2.98 | Q 3.5 | R 4.09 | K 3.93 | C 4.41 | D 3.14 | W 4.69 | S 4.5 | P 1.68 | H 3.87 | G 3.47 | V 2.88 | M 3.07 | A 4.07 | T 3.74 | E 3.19 | L 3 | Y 3.12 | F 3.06
S41: R 0.201 | L 1.15 | G -0.006 | D 0.362 | K 1.64 | T 0.669 | W 0.288 | Y 0.369 | I 1.28 | F -0.464 | V 1.06 | E -0.037 | N 1.9 | C 1.48 | H 2.95 | M 1.38 | A 1.22 | Q 0.463
K40: L 3.84 | Y 3.79 | N 1.04 | A 3 | F 3.63 | I 3.96 | Q 3.88 | R 4.32 | W 3.24 | S 2.8 | V 4.24 | E 2.86 | G 1.1 | M 4.1 | T 2.76 | C 3.71
E47: W 2.14 | A 2.77 | F 2.36 | M 3.2 | I 4.37 | G 1.26 | K 2.55 | N 1.81 | D 1.89 | S 3.47 | H 2.22 | Q 3.21 | Y 2.25 | V 4.3 | L 2.59 | R 2.28 | C 3.83
Y54: I 2.17 | L 3.67 | M 3.17 | F 3.51 | A 2.58 | C 2.85 | G 0.76 | V 1.29 | R 2.74 | N 1.04 | P -0.857 | T 1.16 | D -0.435 | S 1.81 | H 2.9 | W 2.19 | Q 1.44 | E 0.003 | K 2.44
I50: P -0.401 | C 0.571 | F 2.01 | V 2.59 | A 0.132 | W -0.594 | Y -0.106 | M 0.656 | L 1.58 | D -0.59
W36: R 4.45 | I 3.52 | Q 2.51 | L 2.85 | A 1.68 | K 3.49 | E 1.14 | V 3.3 | C 3.06 | S 2.15 | H 2.3 | P 1.14 | G 0.695 | F 3.29 | M 3.29 | Y 3.49 | N 2.13 | D 0.269 | T 2.87
E35: Y 4.96
A56: E 3.61 | D 2.03 | C 4.6
P51: F 1.25 | D 1.08 | A 0.249 | M 1.59 | E 0.647 | V -0.225 | L 1.54 | I 0.759 | W 1.33 | K 1.62 | Y 1.26 | T -0.429 | S 1.19 | C 2.34 | R 1.7 | Q 1.09 | H 1.83 | G 0.115 | N 2.28
F49: H 1.88 | P -0.719 | N 3.4 | L 3.4 | M 4.22 | E 0.945 | W 4.88 | D 1.19 | A 1.48 | T 2.25 | R 3.83 | G 0.912 | C 3.83 | I 2.63 | S 1.94 | K 2.81 | V 2.3 | Q 2.25
L43: S 3.38 | E 3.22 | P 0.475 | V 3.56 | C 3.7 | Q 2.88 | I 3.26 | W 4.56 | H 3.1 | D 3.14 | A 3.2 | N 2.4 | F 3.03 | Y 3.26 | R 3.66 | G 2.02 | K 3.17 | M 3.25
V55: A 1.47 | P -0.707 | K 0.066 | S -0.255 | F 4.1 | I 2.12 | T 1.68 | E -0.519 | W 0.199 | G 0.112 | L 1.18 | H -0.417 | Y 0.703 | C 2.7 | M 1.6
S52: Y 3.08 | H 2.96 | A 4.05 | I 2.91 | V 3.02 | R 4.29 | M 3.52 | E 1.64 | W 3.1 | L 2 | G 2.51 | F 2.85 | D 1.16 | K 4.84 | Q 3.31 | T 2.23 | C 3.84 | N 2.58 | P 3.65
K45: R 3.65 | Y 3.97 | D 4.09 | A 3.94 | I 1.8 | M 4.29 | S 3.89 | Q 4.25 | E 4.09 | L 4.49 | T 3.1 | W 4.01 | P 0.596 | N 4.22 | H 4.6 | F 4.45 | V 1.61
W37: T 2.67 | N 1.19 | G -0.016 | V 3.04 | I 3.96 | P 1.7 | R 2.28 | M 4.7 | F 4.79 | D 0.168 | H 2.59 | A 2.24 | Q 1.99 | C 3.04 | K 3.8 | S 2.26 | E -0.118
T44: V 0.057 | W 0.672 | F 0.599 | R 0.922 | S 3.08 | A 0.515 | H 0.98 | L 0.417 | I -0.332 | M 0.443 | E 0.228 | Y 0.599 | Q 1.26 | G 0.839 | D 1.14 | C 0.909 | N 2.06 | K 0.416
L42: A 0.615 | T 1.47 | I 2.51 | M 3.09 | D 0.832 | E 1.82 | F 2.83 | P -0.897 | N 0.819 | Q 1.32 | V 1.88 | Y 2.14 | H 1.02 | G -0.156 | S 0.699 | C 4.16 | K 0.463 | W 1.06 | R 0.165
K38: H 2.92 | Q 2.39 | V 3.34 | I 3.44 | M 3.87 | R 4.06 | P 0.337 | A 1.72 | C 3.63 | F 4.92 | G 0.033 | S 1.83 | T 2.18 | N 1.45 | E 1.49
